This test deals with T1, KRAS Q61H peptide on HLA-A*01:01 (human).
T1 peptide: ILDTAGHEEY
As to the kind of experiment: cytokine release.

The values that follow come from patent EP4649952A1 (dated 2025).

B1: TCR-1 (TCR, V domains shown)
Valpha: KVTQAQTEISVVEKEDVTLDCVYETRDTTYYLFWYKQPPSGELVFLIRRNSFDEQNEISGRYSWNFQKSTSSFNFTITASQVVDSAVYFCALSEANQAGTALIFGKGTTLSVSS
Vbeta: EAQVTQNPRYLITVTGKKLTVTCSQNMNHEYMSWYRQDPGLGLRQIYYSMNVEVTDKGDVPEGYKVSRKEKRNFPLILESPSPNQTSLYFCASSRKVPPVYGYTFGSGTRLTVV
B1: the binding result is on record as “recognises”.

B2: TCR-2 (TCR, V domains shown)
Valpha: KVTQAQTEISVVEKEDVTLDCVYETRDTTYYLFWYKQPPSGELVFLIRRNSFDEQNEISGRYSWNFQKSTSSFNFTITASQVVDSAVYFCALSEANQAGTALIFGKGTTLSVSS
Vbeta: EAQVTQNPRYLITVTGKKLTVTCSQNMNHEYMSWYRQDPGLGLRQIYYSMNVEVTDKGDVPEGYKVSRKEKRNFPLILESPSPNQTSLYFCASSRRWPPTDTQYFGPGTRLTVL
Regarding B2, the binding result is recorded as “recognises”.

B3: TCR-3 (TCR, V domains shown)
Valpha: AQKVTQAQTEISVVEKEDVTLDCVYETRDTTYYLFWYKQPPSGELVFLIRRNSFDEQNEISGRYSWNFQKSTSSFNFTITASQVVDSAVYFCALSEAKAAGNKLTFGGGTRVLVKP
Vbeta: EAQVTQNPRYLITVTGKKLTVTCSQNMNHEYMSWYRQDPGLGLRQIYYSMNVEVTDKGDVPEGYKVSRKEKRNFPLILESPSPNQTSLYFCASSRKLPPTYGYTFGSGTRLTVV
Take B3: the binding result was “recognises”.
